Test results published in the DeepSol protein solubility set.

Test: soluble on expression in E. coli; label from the status in PepcDB or PDB records
For “MFNFANVYQQIAQHPQLQLWLNTLPQQLTDWQAKQHGDLDRWMRNLKKIPVGQPEVIDLKNAVAAHNHQPLAQGEQKKLEAVLKTFHPWRKGPYHLHGIHIDTEWRSDWKWDRLLPHISPLKNRLVLDVGCGNGYHMWRMLGEGAQQVFGIDPSELFLIQFEAVRKLLGDDQRVHLLPLGIEQMPELNAFDTVFSMGVLYHRRSPLDHLLQLKNQLVAGGELILETLVVEGDEHTVLVPFDRYAQMRNVYFFPSALALKVWLEKTGFVDVRIVDENITSLGEQRTTEWMTHNSLPDYVDPQDPSKTIEGYPAPRRAILIAKKP”, the “soluble on expression in E. coli” value was “not soluble”.
In the case of “MSLNDTALTITAVRAVLLSHRYQPGEELTWVGGTIWSWDAALVEVTLSDGTTGIGEAGAGIMAAAAVPGIVDAFRPYVLDHEFGHPLEVADHLRAYTAFWARGGMLNGVAGAIETAAVDAVAKRLGVPAYEVLGGLKRDWIESYASGGLGTTFGEVSDWAAAQIEAGFGTVKFRAMTDPDTTIKLLDHVTALLPEGIQFVIDAVQACASDPWPVDEAIRVGQKAAELGARWYEEPCQADDVAGYAAVRAAVNVPISGVESNGTVRDFAQLLDAKALDVAQPDVTFVGGPKAFAQVAELAHATGVKTVPHVWGSGVTFAANLHTVLANPYVELFEYCTLPNPLRDAMRVEEVDFRDGGIVAPTAPGLGIQLTPEIEAQFPFSPGGGHVIREGHHHHHH”, the “soluble on expression in E. coli” value was “soluble”.
For “MSLGHAKEVKIGVILGFTGPIESLTPSMADGAELAMKEVTDSGLLLDGATVTSVRADSTCVDAAAATAAAERLVTSDKVDGIMGADCSGVTGAILSNVAVPNGVVMISPSATSPALSTADDNGLFFRTAPSDARQGVVMTEVLMEEGIKEVALTYTNNDYGKGLADSFQAAFEAAGGTVTISAAHEDGKADYSAEVGALAAAGGDRLVVAGYVDQGGSGIVRSAIDSGAFDTFHFPDGMIGAKLEENFGDEIEGSSGQHPGTDSPGVAKFSEMVGGAFDSTSPFTPEAYDAAALIMLAMQAANSKDSGDYKDHVMHVANAPGEKIYPGELAKALQIIKDGGEVDYVGATAVELIGPGESAGNYRQITIEGGKITTAKFREGHHHHHH”, the “soluble on expression in E. coli” value was “soluble”.
With “MPEKKSLLEVPPELVFSGPFDHVITTYMTLTNISQSPVCFLVKTTVPNSYCVRPNRGILNIGDSKQIEVMLQPLEKVPPDAKQHKFLVQSCVAPSIDVSDLESVWKNVKPDELTYNRLVVTFVDNTDSKSNIECEICTLEFSSVVDNQIPRILQCGHSICQSCASKLAKNCVILCPFCRNETNVSSVASLPKNFALLQAIDQKTLRVPPLEIAKLRQQLSCQLSKLEEQVSKTDKSIKAVGRAQLSNLKDGREFQERKDSIVSYYASIRETINALENEAIGKLHTIADMNVSKNALLVAELSEILKHQNLKIAELKLSMEMDDVELATRSLTDSGTECAVVKPAVLDVALTFPEIDKMALLSMTTKFPSNFSTV” the “soluble on expression in E. coli” value was “not soluble”.
With “MTSSAMDNNEPKVLEMVYDATILPECSGMDPSIIDCINRHINMRIQRSYSSNIIAILDRFLMMNKDELNNTQCHIIKEFMTYEQMAIDYYGGYVNAILYQIRKRPNQHHTIDLFKRIKRTRYDTFKVNPVEFVKKVIGFVSILNKYKPIYSYVLYENVLYDELKCFIDYVETKYFQN” the “soluble on expression in E. coli” value was “not soluble”.
For “MHHHHHHSSGVDLGTENLYFQSMRTGYRVFSANSTAACTELAKRITERLGAELGKSVVYQETNGETRVEIKESVRGQDIFIIQTIPRDVNTAVMELLIMAYALKTACARNIIGVIPYFPYSKQSKMRKRGSIVCKLLASMLAKAGLTHIITMDLHQKEIQGFFSFPVDNLRASPFLLQYIQEEIPNYRNAVIVAKSPDAAKRAQSYAERLRLGLAVIHGEAQCTELDMDDGRHSPPMVKNATVHPGLELPLMMAKEKPPITVVGDVGGRIAIIVDDIIDDVESFVAAAEILKERGAYKIYVMATHGILSAEAPRLIEESSVDEVVVTNTVPHEVQKLQCPKIKTVDISLILSEAIRRIHNGESMAYLFRN”, the “soluble on expression in E. coli” value was “soluble”.
With “MWHIFERFVNEYERWFLVHRFAYLSELQAVKCLLPEGRGVEIGVGTGRFAVPLKIKIGVEPSERMAEIARKRGVFVLKGTAENLPLKDESFDFALMVTTICFVDDPERALKEAYRILKKGGYLIVGIVDRESFLGREYEKNKEKSVFYKNARFFSTEELMDLMRKAGFEEFKVVQTLFKHPSELSEIEPVKEGYGEGAFVVIRGTKK” the “soluble on expression in E. coli” value was “soluble”.
For “MSLEEQLYKRDPVSGAILVPMTVNDQPIEKNGDKMPLKFKLGPLSYQNMAFITAKDKYKLYPVRIPRLDTSKEFSAYVSGLFEIYRDLGDDRVFNVPTIGVVNSNFAKEHNATVNLAMEAILNELEVFIGRVKDQDGRVNRFYELEESLTVLNCLRTMYFILDGQDVEENRSEFIESLLNWINRSDGEPDEEYIEQVFSVKDSTAGKKVFETQYFWKLLNQLVLRGLLSQAIGCIERSDLLPYLSDTCAVSFDAVSDSIELLKQYPKDSSSTFREWKNLVLKLSQAFGSSATDISGELRDYIEDFLLVIGGNQRKILQYSRTWYESFCGFLLYYIPSLELSAEYLQMSLEANVVDITNDWEQPCVDIISGKIHSILPVMESLDSCTAAFTAMICEAKGLIENIFEGEKNSDDYSNEDNEMLEDLFSYRNGMASYMLNSFAFELCSLGDKELWPVAIGLIALSATGTRSAKKMVIAELLPHYPFVTNDDIEWMLSICVEWRLPEIAKEIYTTLGNQMLSAHNIIESIANFSRAGKYELVKSYSWLLFEASCMEGQKLDDPVLNAIVSKNSPAEDDVIIPQDILDCVVTNSMRQTLAPYAVLSQFYELRDREDWGQALRLLLLLIEFPYLPKHYLVLLVAKFLYPIFLLDDKKLMDEDSVATVIEVIETKWDDADEKSSNLYETIIEADKSEGHHHHHH”, the “soluble on expression in E. coli” value was “not soluble”.
In the case of “MAETTPKVKGHVVILPYPVQGHLNPMVQFAKRLVSKNVKVTIATTTYTASSITTPSLSVEPISDGFDFIPIGIPGFSVDTYSESFKLNGSETLTLLIEKFKSTDSPIDCLIYDSFLPWGLEVARSMELSAASFFTNNLTVCSVLRKFSNGDFPLPADPNSAPFRIRGLPSLSYDELPSFVGRHWLTHPEHGRVLLNQFPNHENADWLFVNGFEGLEETQDCENGESDAMKATLIGPMIPSAYLDDRMEDDKDYGASLLKPISKECMEWLETKQAQSVAFVSFGSFGILFEKQLAEVAIALQESDLNFLWVIKEAHIAKLPEGFVESTKDRALLVSWCNQLEVLAHESIGCFLTHCGWNSTLEGLSLGVPMVGVPQWSDQMNDAKFVEEVWKVGYRAKEEAGEVIVKSEELVRCLKGVMEGESSVKIRESSKKWKDLAVKAMSEGGSSDRSINEFIESLGK”, the “soluble on expression in E. coli” value was “soluble”.
In the case of “MEDNRVEEDGEVKSDVGTSSDEKASDSEVEKRQRTDSERSGKDKKKKHKKEKKHKKDKKHKKEKKHKREKEVEMENDGPPAKKRTLEEVDTKKDESKKKEAKESSRNNEDELRNPPRRERSKSAERRDRELRERRDAERRDRSLSKERRLIQRKREDNRRDPRAHEGNRRRDRTPERFRNNRDRRDRDGRREDRHRRSPDRRRDSDRKREDGKRKDESKDVEWNLDSDSDDEQKKIEAARKRRIQIIKKIEGHTEENTPRDSSTPRSDTIGDKKTDESEDSSSDSEDDEDDRKLAEAKDLIKSTRFGSEQGSGASTPVSIQSDNDTPTDFFSGLRDKMVHMKDADEHNVDEVLQRGKDEEYREDWHTQLKEQEKREEEEKKKKLEAEAAAEAAKKKKQEEDDTGFDMFADNEELPQDSTTIDGHSGAVHDTLKDNWDDVEGYYRVRIGELLDTRYRVVGFTGAGVFGNVCRCNDQTKGNTVAVKIIRNNEVMYKTGLRELEVLRKLNEADKEDKYHCLRLFRTFKHHNHLCLVFENLSMNLRELLKKYGQKDGLHLKAVRSYAQQLLLALRLLKKLEFVHADIKPDNILVNESKLTLKLCDFGSAGRVNEQELAPYLVSRFYRAPEIMLGVRHDYAIDLWSVAVTLYEVYTGKIMFPGRTNNHMLKLFTDVKGKYPNKLVRKSQFKDTHFDVNCNLLYQEVDKVTERNKITVLANLKPTRDLESELIAGQRLSRDQMDQIQAFRTLLDGMLILDPSKRTTCNEALKHPFFTIPIK”, the “soluble on expression in E. coli” value was “soluble”.
In the case of “MGSDKIHHHHHHMRVGATLARAIALKYNKKLVPVNHGIGHIEIGYLTTEARDPLILYLSGGNTIITTFYKGRFRVFGETLDIALGNMMDVFVREVSLAPPYIINGIHVIDICAEKGNKLLKLPYVVKGQDMSFSGLLTAALRVVGKEKLEDICYSVREIAFDMLLEATERALALTSKKELMIVGGVAASVSLRKKLEELGKEWNVQIKIVPPEFAGDNGAMIAYAGMLAASKGVFIDVDKSYIRPRWRVDEVDIPWRN”, the “soluble on expression in E. coli” value was “not soluble”.
With “MEKIVVIKYKDIKLKSPILIGGLPGIGNVGKIAADYIVEKLNMTKMYDIFSQYLPPQVFINDDSVVHLVRNSIYYKKMRGKHDLVILAGDFQGTTQEAQYELSYQVLQIAKEIGVSMIYTLGGYSIGKIVDKPRVLGAVTDKNLVADLEKNGVVFPKGEPGGGIVGSAGLILGLGMELFNMNGACLMGETSGYFADPKSAMEVLNVLQRQLGIKIDMSDIETRSKQIEQITGKMAEEFQNKQNKEDLGYFG” the “soluble on expression in E. coli” value was “soluble”.
For “MSLAQSVAGSSVLTPGLTVSGPHSHARHSATLPSAMTAFPAAPDLAPPSRAAQGERVLCAMSGGVDSSVTASLLKEQGYQVIGAMMRFWPDDKRTDTFDSCCSPDAAYEARRVAEQVGVPFYLLDYREPFQRHIVGPFLEEYARGRTPNPCVNCNTKVKFDELVKKAKMLGCRYVATGHYVKRVDNAQGEVEFHRGDDPRKDQTYFLWGTPRDALPYILFPVGELEKPQVREIAAERGLLTAQKPESQNICFVPGKVQDFVAEHLPQAQGYIREIATGEVVGEHLGTQFYTLGQKKGLGLYQSHRVRHVVHLDPDSNTVWVGDYDDCLWTGLKATDANYLLDLAELPTELEVQVRYRTAPVKAHVLHADAEGFELEFAEPQFAVAPGQSAVLYAGSRLLGGGLIADHARELPALTEGHHHHHH”, the “soluble on expression in E. coli” value was “soluble”.
In the case of “IPIPSALEARLDAYVALLQQWQAKTNLVAPSTLPQLWTRHVADSLQLVSLMPHARRWLDFGSGGGFPGVVLACAMADVGGHVTLVERIAKKAAFLREALRVAGAPGTVILADIGDNVDRFPQALDCITARAVAPLHQLIGFAEPLMTPGTTKALFLKGQDVDAELTETTKYWKFQPKLHASVTGGQGWIVEIDHIER”, the “soluble on expression in E. coli” value was “not soluble”.
For “MGHHHHHHSHMSFSKESSRLFGFVAGIKFPKMIQKVINENYVKYFNINMSEFKAPCEYESLNALFTRTLQIPRKFEEGFISPSDGKILECGSTFLANEEHFAFSIKGHAYSVEELLKDSFEKDELKNGLDYVNIYLSPKDYHRYHSPCDMQILSATYTSGVLYSVNEKHLERISNLYVKNERVSLKCQNEKGIFWLVFVGAQNVGKMRFNFDASIQTNAKISHNFTRKYENLNFKKGEELGNFELGSTIVLISQKGLLTFNLKVGQGIKFGEKIAD”, the “soluble on expression in E. coli” value was “soluble”.
For “MIATLLSSLLLTGPISAGAETQGLLPAQDLLPDIGTSAGATLSIDQEMAMGDFYVRQMRASAPLIYDPLLTQYINTLGNRLVANANSVRTPFHFYLVNNDQINAFAFFGGNVVLHSALFRYTDNESELASVLAHEISHVTQRHLARAMEEQQRLAPLTWVGVLGSILLTMASPQAGMAGLSGTLAGAQQGIISFTQGNEQEADRIGIQVLQRSGFDPQAMPNFLQKLADQSRYVSKPPEMLLTHPLPDSRLSDARNRANQMKPHPTASSQDYLFAKMRILGMYGADENSLTPELLDKLSKGTVREQLAAKYGQAVQLYQAKKYDEARNLLQPLLAQQPGNIWFLDLMTDIDLGQNKSAAAIARLQNAMVKQNDEPVLQLNLANAYVQGRQPAAAIKLLHRYTFAYPNDPNGWDLLAQATATQGLRDQELAARAESLALSGKLTQAIGLLSDASARVKLGSLEQARYDARIDQLRRLNERFRKYQKS”, the “soluble on expression in E. coli” value was “not soluble”.
For “MKMKEFLDLLNESRLTVTLTGAGISTPSGIPDFRGPNGIYKKYSQNVFDIDFFYSHPEEFYRFAKEGIFPMLQAKPNLAHVLLAKLEEKGLIEAVITQNIDRLHQRAGSKKVIELHGNVEEYYCVRCEKKYTVEDVIKKLESSDVPLCDDCNSLIRPNIVFFGENLPQDALREAIGLSSRASLMIVLGSSLVVYPAAELPLITVRSGGKLVIVNLGETPFDDIATLKYNMDVVEFARRVMEEGGIS”, the “soluble on expression in E. coli” value was “soluble”.
